Measurements published in patent US20230073034A1 (APRILBIO, published 2023).

T1: recombinant human CD40L (rhCD40L-his) (human, UniProt P29965 113-261, limits assumed)
T1 construct: Soluble recombinant form made by the applicant; also called rhCD40L antigen
T1 sequence (looked up): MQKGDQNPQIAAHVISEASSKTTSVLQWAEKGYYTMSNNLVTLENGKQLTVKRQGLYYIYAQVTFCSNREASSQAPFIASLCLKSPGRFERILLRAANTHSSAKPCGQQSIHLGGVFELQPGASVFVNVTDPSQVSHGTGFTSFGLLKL

T2: cell membrane CD40L expressed on D1.1 cells (UniProt P29965 1-261, limits assumed)
T2 sequence (looked up): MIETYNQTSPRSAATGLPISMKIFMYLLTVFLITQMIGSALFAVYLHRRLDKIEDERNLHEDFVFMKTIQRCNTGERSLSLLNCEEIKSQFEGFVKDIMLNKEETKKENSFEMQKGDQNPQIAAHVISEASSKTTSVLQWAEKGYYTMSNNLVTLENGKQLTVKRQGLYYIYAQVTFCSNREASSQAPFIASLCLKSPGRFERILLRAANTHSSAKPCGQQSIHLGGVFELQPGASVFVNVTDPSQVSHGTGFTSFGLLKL

B1: APB-B1a, (anti-CD40L scFv)2-(anti-HSA SL335 Fab)-(anti-TNF-α Fv) (bispecific antibody)
chain 1: DIVLTQSPATLSVSPGERATISCRASQRVSSSTYSYMHWYQQKPGQPPKLLIKYASNLESGVPARFSGSGSGTDFTLTISSVEPEDFATYYCQHSWEIPPTFGGGTKLEIKRGGGGSGGGGSGGGGSQVQLVQSGAEVVKPGASVKLSCKASGYIFTSYYMYWVKQAPGQGLEWIGEINPSNGDTNFNEKFKSKATLTVDKSASTAYMELSSLRSEDTAVYYCTRSDGRNDMDSWGQGTLVTVSSGGGGSGGGGSGGGGSQVQLVQSGGGPVKPGGSLRLSCAASGFMFRAYSMNWVRQAPGKGLEWVSSISSSGRYIHYADSVKGRFTISRDNAKNSLYLQMNSLRAEDTAVYYCARETVMAGKALDYWGQGTLVTVSSASTKGPSVFPLAPSSKSTSEGTAALGCLVKDYFPEPVTVSWNSGALTSGVHTFPAVLQSSGLYSLSSVVTVPSSSLGTQTYICNVNHKPSNTKVDKKVEPKSSGGGGSGGGGSGGGGSEVQLVESGGGLVQPGGSLRLSCAASGYVFTDYGMNWVRQAPGKGLEWMGWINTYIGEPIYADSVKGRFTFSLDTSKSTAYLQMNSLRAEDTAVYYCARGYRSYAMDYWGQGTLVTVSS
chain 2: DIVLTQSPATLSVSPGERATISCRASQRVSSSTYSYMHWYQQKPGQPPKLLIKYASNLESGVPARFSGSGSGTDFTLTISSVEPEDFATYYCQHSWEIPPTFGGGTKLEIKRGGGGSGGGGSGGGGSQVQLVQSGAEVVKPGASVKLSCKASGYIFTSYYMYWVKQAPGQGLEWIGEINPSNGDTNFNEKFKSKATLTVDKSASTAYMELSSLRSEDTAVYYCTRSDGRNDMDSWGQGTLVTVSSGSTSGSGKPGSGEGSTKGDIVLTQSPGTLSLSPGETATLSCRASQSVGSNLAWYQQKPGQAPRLLIYGASTGATGVPARFSGSRSGTDFTLTITSLQPEDFATYYCQQYYSFLAKTFGQGTQLEIKRTVAAPSVFIFPPSDEQLKSGTASVVCLLNNFYPREAKVQWKVDNALQSGNSQESVTEQDSKDSTYSLSNTLTLSKADYEKHKVYACEVTHQGLSSPVTKSFNRGESGSTSGSGKPGSGEGSTKGDIQMTQSPSSLSASVGDRVTITCKASQNVGTNVAWYQQKPGKAPKALIYSASFLYSGVPYRFSGSGSGTDFTLTISSLQPEDFATYYCQQYNIYPLTFGQGTKVEIKR
B2: SL335 Fab (anti-human serum albumin Fab) (Fab, V domains shown)
VH: QVQLVQSGGGPVKPGGSLRLSCAASGFMFRAYSMNWVRQAPGKGLEWVSSISSSGRYIHYADSVKGRFTISRDNAKNSLYLQMNSLRAEDTAVYYCARETVMAGKALDYWGQGTLVTVSS
VL: DIVLTQSPGTLSLSPGETATLSCRASQSVGSNLAWYQQKPGQAPRLLIYGASTGATGVPARFSGSRSGTDFTLTITSLQPEDFATYYCQQYYSFLAKTFGQGTQLEIKR
notes: also called anti-HSA Fab (SL335)
B3: APB-A1, (anti-CD40L hu5c8 scFv)2-anti-HSA SL335 Fab (bispecific antibody)
heavy: DIVLTQSPATLSVSPGERATISCRASQRVSSSTYSYMHWYQQKPGQPPKLLIKYASNLESGVPARFSGSGSGTDFTLTISSVEPEDFATYYCQHSWEIPPTFGGGTKLEIKRGGGGSGGGGSGGGGSQVQLVQSGAEVVKPGASVKLSCKASGYIFTSYYMYWVKQAPGQGLEWIGEINPSNGDTNFNEKFKSKATLTVDKSASTAYMELSSLRSEDTAVYYCTRSDGRNDMDSWGQGTLVTVSSGGGGSGGGGSGGGGSQVQLVQSGGGPVKPGGSLRLSCAASGFMFRAYSMNWVRQAPGKGLEWVSSISSSGRYIHYADSVKGRFTISRDNAKNSLYLQMNSLRAEDTAVYYCARETVMAGKALDYWGQGTLVTVSSASTKGPSVFPLAPSSKSTSEGTAALGCLVKDYFPEPVTVSWNSGALTSGVHTFPAVLQSSGLYSLSSVVTVPSSSLGTQTYICNVNHKPSNTKVDKKVEPKSS
light: DIVLTQSPATLSVSPGERATISCRASQRVSSSTYSYMHWYQQKPGQPPKLLIKYASNLESGVPARFSGSGSGTDFTLTISSVEPEDFATYYCQHSWEIPPTFGGGTKLEIKRGGGGSGGGGSGGGGSQVQLVQSGAEVVKPGASVKLSCKASGYIFTSYYMYWVKQAPGQGLEWIGEINPSNGDTNFNEKFKSKATLTVDKSASTAYMELSSLRSEDTAVYYCTRSDGRNDMDSWGQGTLVTVSSGSTSGSGKPGSGEGSTKGDIVLTQSPGTLSLSPGETATLSCRASQSVGSNLAWYQQKPGQAPRLLIYGASTGATGVPARFSGSRSGTDFTLTITSLQPEDFATYYCQQYYSFLAKTFGQGTQLEIKRTVAAPSVFIFPPSDEQLKSGTASVVCLLNNFYPREAKVQWKVDNALQSGNSQESVTEQDSKDSTYSLSNTLTLSKADYEKHKVYACEVTHQGLSSPVTKSFNRGES
notes: No Fc; also called (anti-hu5c8 scFv)2-SL335; (anti-CD40L scFv)2-anti-HSA Fab

Experiments:
[1] = biological target: T3, human serum albumin (HSA) (human, UniProt P02768 25-609); assay: ELISA, HSA coated at 1 µg/ml, HRP goat anti-human Fd detection
Procedure: After blocking for 2 hours, washing was performed by repeatedly performing a process of completely removing the added buffer, adding each 300 μl of a buffer (PBS-T) containing 0.1% tween-20 PBS (pH 7.4), and then removing the buffer 3 times in total. After removing water remaining after the washing, the respective antibodies were serially diluted 10 folds at concentrations decreasing from 100 nM to 1.0×10⁻⁴ nM in a PBS pH 7.4 buffer (0.3% PBA) containing 0.3% bovine serum albumin and 0.1% tween-20, and each 100 μl of the diluted antibody samples were added to each well to be allowed to react at room temperature for 2 hours. After washing in the same manner as described above, HRP-conjugated goat anti-human Fd antibodies (Southern Biotechnology, Birmingham, Ala.) were diluted with a 0.3% PBA buffer in 1:4,000, and each 100 μl of the diluted antibody samples were added to each well to then be allowed to react at room temperature for 1 hour. To assess antigen-specific binding of the antibodies reacting after the washing, a TMB substrate (BD Bioscience, Franklin Lakes, N.J.) was added and reacted, and the absorbance was measured using a microplate spectrophotometer at A450 nm.
(§1) HRP-conjugated goat anti-human Fd antibodies were used as secondary antibodies.

[2] = biological target: T1, recombinant human CD40L (rhCD40L-his); assay: ELISA, CD40L coated at 1 µg/ml
[3] = biological target: T4, recombinant human TNF-α protein (human, UniProt P01375 77-233); assay: ELISA, recombinant human TNF-α coated at 1 µg/ml, HRP goat anti-human Fd detection
T4 construct: also called soluble TNF-α; recombinant soluble TNF-α protein
T4 sequence (P01375 77-233 limits assumed): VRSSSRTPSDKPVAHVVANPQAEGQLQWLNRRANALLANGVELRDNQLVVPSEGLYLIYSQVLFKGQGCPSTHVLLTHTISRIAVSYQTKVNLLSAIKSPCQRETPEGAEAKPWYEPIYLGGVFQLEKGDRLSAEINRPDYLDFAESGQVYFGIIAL
Procedure: After washing in the same manner as described above, HRP-conjugated goat anti-human Fd antibodies (Southern Biotechnology, Birmingham, Ala.) were diluted with a 0.3% PBA buffer in 1:4,000, and each 100 μl of the diluted antibody samples were added to each well to then be allowed to react at room temperature for 1 hour. To assess antigen-specific binding of the antibodies reacting after the washing, a TMB substrate (BD Bioscience, Franklin Lakes, N.J.) was added and reacted, and the absorbance was measured using a microplate spectrophotometer at A450 nm.
as §1

[4] = biological target: T4, recombinant human TNF-α protein; assay: cell-based or functional assay
[5] = biological target: T2, cell membrane CD40L expressed on D1.1 …; assay: cell-based or functional assay
[6] = biological target: T1, recombinant human CD40L (rhCD40L-his); assay: ELISA, recombinant human CD40L coated at 1 µg/ml, HRP goat anti-human Fd detection
[7] = biological target: T3, human serum albumin (HSA); assay: BLI (Octet RED), antigen on AR2G biosensor
[8] = biological target: T4, recombinant human TNF-α protein; assay: BLI (Octet RED), antigen on AR2G biosensor
[9] = biological target: T1, recombinant human CD40L (rhCD40L-his); assay: BLI (Octet RED), antigen on AR2G biosensor

Binder | EC50 (read off the curve) [1] | fold lower binding capacity than anti-human CD40L IgG1 (ruplizumab) [2] | EC50 (read off the curve) [3] | IC50, SEAP response of HEK-Blue reporter cells + soluble TNF-α 10 ng/ml (FIG. 22B) [4] | IC50, inhibition of TNF-α mediated cytotoxicity on L929 mouse cells, with HSA (FIG. 21) [4] | percent inhibition, SEAP response of HEK-Blue reporter cells + D1.1 cells + soluble TNF-α together (FIG. 22C) [4] | percent inhibition, SEAP response of HEK-Blue reporter cells + D1.1 cells + soluble TNF-α together (FIG. 22C) [5] | EC50 (read off the curve) [6] | Kd [7] | koff [7] | kon [7] | Kd [8] | koff [8] | kon [8] | Kd [9] | koff [9] | kon [9] | binding result [3]
B1 | ~500 pM | ~1.5 fold | ~1000 pM | 3050 pM | 5300 pM | 100% | 100% | ~200 pM | 765 pM | 0.00042 s⁻¹ | 549000 M⁻¹ s⁻¹ | 164 pM | 3.82e-05 s⁻¹ | 230000 M⁻¹ s⁻¹ | 192 pM | 0.000113 s⁻¹ | 590000 M⁻¹ s⁻¹ | –
B2 | ~300 pM | – | – | – | – | – | – | – | – | – | – | – | – | – | – | – | – | no binding (tested: 100 nM)
B3 | ~500 pM | – | – | – | – | – | – | – | – | – | – | – | – | – | – | – | – | no binding (tested: 100 nM)
